# From the supplement of paper PMC7125110
# ± gives the standard error. Fewer inactive variants are shown than the library holds.
# B1: glmS ribozyme (parent)
# chain: AUAAAAGCGCCAGAACUACAGAAAUGUAGUUGACGAGGAGGAGGUUUAUCGAAUUUUCGGCGGAUGCCUCCAAA
# Variants of: B1
# Experiment: self-cleavage kobs at 2500 uM GlcN6P; higher = faster cleavage; RNA array
# Conditions: with glucosamine-6-phosphate
# In short: (§1)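 Glucosamine-6-phosphate in HEPES/KCl/Mg(OAc)2 buffer, at 40 μM to 10 mM, was flowed over barcoded ribozyme variants transcribed in situ by E. coli RNA polymerase on sequenced MiSeq chips. Tracking was through a hybridised Cy3 probe at 37 °C. kobs, kcat and KM came from exponential decay fits and weighted Michaelis–Menten fits of normalised per-tile medians.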
row,Variant,self-cleavage kobs at 2500 uM GlcN6P [s⁻¹]
1,G9A A14C A15G G35C A39G A52C A53G,< 1e-05
2,C34A A42U U47A,< 1e-05
3,G7A A12U U31G C70A,< 1e-05
4,G51A A53C G62C,< 1e-05
5,A12C A39G U47C,0.00269 ± 0.00067
6,A12U U47G U65G,0.00179 ± 0.0004
7,A6U A36G U46C A52G C67U,< 1e-05
8,A12G A15U G37U A42G U55A,< 1e-05
9,A14G G41A G62U,< 1e-05
10,U2C A53C,0.00726 ± 0.0019
11,A6U U30A A33C U45G C58A,< 1e-05
12,A15U A33C A39G C71G,< 1e-05
13,G41C A42G U55A,9.68e-05 ± 2.6e-05
14,C34U C58U U65A,< 1e-05
15,A12G C16U U69G,6.28e-05 ± 2.8e-05
16,C8G G9U C16A A53C,< 1e-05
17,A15G C34A G63A,< 1e-05
18,G9A C34A U49G,< 1e-05
19,G29C U30G A39G,0.00224 ± 0.00066
20,A14C A39C C71U,4.93e-05 ± 1.7e-05
21,U31G A48U A52C,< 1e-05
22,G32C U65G C68G,< 1e-05
23,G9U A15C C68U,< 1e-05
24,C10G A14U G32U C61A G63A,< 1e-05

row,Variant,self-cleavage kobs at 2500 uM GlcN6P [s⁻¹]
1,A12G G38U C67G C68A,9.28e-05 ± 2.6e-05
2,A14G G35U C67U,< 1e-05
3,C16U C34G C50G,0.00012 ± 5e-05
4,A15G G44A U65A,8e-05 ± 2e-05
5,A6C G40C C61U,< 1e-05
6,G38U G41U C50G C68G,< 1e-05
7,A14U A33G G40U U56A,< 1e-05
8,A12U A48U G51C G60U,< 1e-05
9,C34U A39C C68U,< 1e-05
10,A53G C67G C68U,7.23e-05 ± 2.2e-05
11,A6C A14C A15U A42G,< 1e-05
12,G37A U49G C70U,7.97e-05 ± 2e-05
13,C10U G35C G38A A52C G62U,< 1e-05
14,G29A U31G U54G,6.58e-05 ± 3.2e-05
15,A6G A14U U54A,0.000117 ± 2.9e-05
16,G40U G44A U55C C67U,< 1e-05
17,A12C A33G C34U C50A A64U C70G,0.00011 ± 4.2e-05
18,A6U A15G C16U,5.09e-05 ± 1.6e-05
19,G32A A33U G51U,< 1e-05
20,A14G A15U A48U,0.000128 ± 4.1e-05
21,C16A G37C U55C,< 1e-05
22,G43U A48C C61G,< 1e-05
23,A15C A42G C67U,0.000389 ± 9.9e-05
24,G40C G66C,0.000833 ± 0.00021

row,Variant,self-cleavage kobs at 2500 uM GlcN6P [s⁻¹]
1,G32U G37C G43U,< 1e-05
2,A12C G29A U45G U46C,0.000151 ± 5.3e-05
3,A6C A48C G51U,< 1e-05
4,A12U G29U U30A U31A,0.000126 ± 4.8e-05
5,C10U G35U G43C,< 1e-05
6,C11A A14G G29U,5.93e-05 ± 2.7e-05
7,A12U U30G U49C,< 1e-05
8,C10A A12C G51U,< 1e-05
9,U31G G32C G66A,0.000109 ± 2.1e-05
10,G29C A33G A53U A64G U69G,0.000129 ± 4.1e-05
11,G40U A48C C50U,< 1e-05
12,G41U A53U G60U C61A G66U,< 1e-05
13,U54A C67A C68U,9e-05 ± 2.1e-05
14,G32U A48U G51C,< 1e-05
15,A6G A12C U56G,5.25e-05 ± 2.1e-05
16,C16G G43U G62A,< 1e-05
17,A6G A42G C67U C70U,< 1e-05
18,G9C G13C C34A G62C A64G,< 1e-05
19,A15U U30C U31A,0.0213 ± 0.0088
20,G37U G43C A48C C61U G63U,< 1e-05
21,C10G G40C G59U,< 1e-05
22,A12C U56A C58G,0.00043 ± 8.1e-05
23,C11G U30C G37U,< 1e-05
24,U31A U47C U56C,0.000498 ± 0.00011

row,Variant,self-cleavage kobs at 2500 uM GlcN6P [s⁻¹]
1,G7U U46G A48U,< 1e-05
2,A14C U30C G32A C58G,7.82e-05 ± 3.2e-05
3,A6G A36C U54G G62U,< 1e-05
4,C10U C11U A15C C34A,< 1e-05
5,C34U G51U A64C,< 1e-05
6,U30A U46G A53U,0.000335 ± 9.7e-05
7,A39C A42G A52U,6.4e-05 ± 1.5e-05
8,A12G A53U U55G,0.000166 ± 2.9e-05
9,G9A U54G G62A,< 1e-05
10,A14G A33G A36U A42U U46A,< 1e-05
11,A36C A48G C70G,< 1e-05
12,G44A U49A G62U,< 1e-05
13,A33G U46G C68U C71G,0.000183 ± 5.3e-05
14,U30G A42G U65G C67U,0.000104 ± 3.7e-05
15,A36G U46A C70A,< 1e-05
16,A52G U54G C68G,7.13e-05 ± 2.9e-05
17,G43U U49G C61G,< 1e-05
18,C10G A36G A52U,< 1e-05
19,A12G A33G G41C G66A,< 1e-05
20,A1U A15G A36U,< 1e-05
21,G32C U47A A64G C68A,< 1e-05
22,U30G U31A G35A A39G G51C G59A,< 1e-05
23,G26U C58U,6.46e-05 ± 1.7e-05
24,A6U G9A C61A,< 1e-05

row,Variant,self-cleavage kobs at 2500 uM GlcN6P [s⁻¹]
1,G35U G40A G41U U45G A53G,< 1e-05
2,A12G G43U A48C U69G,< 1e-05
3,G29A U31A G38C,< 1e-05
4,G9C A15G U45G,< 1e-05
5,A6C A14G G35A U57A G66C C68U,< 1e-05
6,A33U G43U U65C,< 1e-05
7,G9C G40U C67U,< 1e-05
8,A15G A48C C50U,< 1e-05
9,C16U G37U A42G,< 1e-05
10,G7A G9U A33C U47G,< 1e-05
11,G44A U49C G62U,< 1e-05
12,A6U G37U G40U,< 1e-05
13,G32A G35C G44C U56G,< 1e-05
14,A12U G38U U49A,< 1e-05
15,C16G U49G U55A,5.61e-05 ± 2.1e-05
16,A33C G40A A48C G51C G60C,< 1e-05
17,G9A A12C G59C,< 1e-05
18,A39C U45A C50G C70G,< 1e-05
19,A6U C8G G44C A53G,< 1e-05
20,A12U G37A C70G,0.00013 ± 3.4e-05
21,C34A G38U C50G,9.01e-05 ± 3e-05
22,A64C C67G C68A,6.52e-05 ± 1.8e-05
23,A12G U54A C68G,5.86e-05 ± 1e-05
24,C10G U30G A39U G44C A48C,< 1e-05

row,Variant,self-cleavage kobs at 2500 uM GlcN6P [s⁻¹]
1,G7C A14C G35C U57G,< 1e-05
2,U56G C58A C71A,3.99e-05 ± 1.6e-05
3,G35A A52U A53G C70U,< 1e-05
4,A14C U56C C67U,< 1e-05
5,C10U C11U G13C A42U U54A,< 1e-05
6,A39G G41U U69A,5.05e-05 ± 2.2e-05
7,C34A G59A C70A,< 1e-05
8,G40U G41A C67A C70U,0.000143 ± 3.7e-05
9,C10G G44U C71A,< 1e-05
10,G38U U65A C70G,0.000107 ± 3.6e-05
11,G26U G41C,0.000123 ± 3.4e-05
12,C34U G35A,< 1e-05
13,G13U A36U A53C,< 1e-05
14,G44U U45G C70U,0.000791 ± 0.00023
15,U30A C50A C68U,4.96e-05 ± 2.3e-05
16,A6G U31A U49A,< 1e-05
17,U56A C58G C67U,4.09e-05 ± 1.7e-05
18,G35U A36U G43A C50G U69G,< 1e-05
19,C8G A36G G38A A52G U65G U69G,5.4e-05 ± 1.8e-05
20,C16U A52G A53G C61U,< 1e-05
21,G9C A14U G29C,< 1e-05
22,G9U A52U C58G,< 1e-05
23,U30G G35A G43C,< 1e-05
24,C11G G13U G29C,< 1e-05

row,Variant,self-cleavage kobs at 2500 uM GlcN6P [s⁻¹]
1,G37C G41U A48C,< 1e-05
2,C10A G35U A48C,< 1e-05
3,A52G A64G C68U,6.71e-05 ± 2.2e-05
4,C8U A14U G32U G41C C67U,< 1e-05
5,U30C G40A G43A C68A,< 1e-05
6,A39C A53U A64G,0.00188 ± 0.00024
7,U49C U55C C70G,< 1e-05
8,G9C C34U A53U,< 1e-05
9,A12G G35U C67A,< 1e-05
10,G38C U57A G63U,< 1e-05
11,C16U A36U A39U A52U,< 1e-05
12,C8U C10U G13U G29C C58U C61A C67A,0.000532 ± 0.00015
13,C10A C11A G51U A52U,< 1e-05
14,C16A A39C A42U G51C C61G,< 1e-05
15,U31C C34U U69C,< 1e-05
16,U55A C67U C68G C70A,0.000233 ± 8.8e-05
17,A33U C67A U69A,< 1e-05
18,C10G U47G G51A,< 1e-05
19,G38U G40U A48U C68G,< 1e-05
20,A14G U55G G66U,0.00182 ± 0.00038

# Variants of: B1
# Experiment: self-cleavage kobs at 10000 uM GlcN6P; higher = faster cleavage; RNA array
# Conditions: with glucosamine-6-phosphate
# In short: as §1
row,Variant,self-cleavage kobs at 10000 uM GlcN6P [s⁻¹]
1,G9U A15C C68U,< 1e-05
2,G40C G66C,0.000531 ± 6.3e-05
3,A12U G29U U30A U31A,0.000361 ± 0.00013
4,A6G A12C U56G,5.92e-05 ± 1.5e-05
5,U31A U47C U56C,0.000333 ± 6.1e-05
6,G26U C58U,7.64e-05 ± 1.4e-05
7,A12U G37A C70G,9.11e-05 ± 2.1e-05
8,C34U G35A,< 1e-05
9,G13U A36U A53C,< 1e-05
10,A14G U55G G66U,0.00253 ± 0.00062
